Kd and KD for suPAR in the presence of αvβ3 integrin (5 nM) with Mn2+ data for three substances are collected here from PMC6019326.

Experiment in all cases: SPR
(In general: In SPR one partner is held on a chip, and binding of the other changes the refractive index at the surface.)

In experiment [1] the target is recombinant APOL1 G2 protein (His-tag fused, risk variant) (human) (UniProt O14791).
For experiment [2], the target named is recombinant APOL1 G1 protein (His-tag fused, risk variant) (human) (UniProt O14791).
Experiment [3] concerns the target recombinant APOL1 G0 protein (His-tag fused, reference allele) (human) (UniProt O14791).
Experiment [4] has as its target recombinant APOL1 G2 protein (His-tag fused, risk variant) (human) (UniProt O14791). This is another data set of the same source.
For experiment [5], the target named is recombinant APOL1 G1 protein (His-tag fused, risk variant) (human) (UniProt O14791). This is another data set of the same source.

Like-named read-outs stand apart in the source and are kept apart here.

For “human integrin α3β1 (from UniProt P26006 33-1051; P05556 21-728) (complex)”, the dissociation constant (Kd) in experiment [1] and in experiment [2] was greater than 1000 µM throughout.

In the case of “human recombinant protein integrin αvβ3 (from UniProt P06756 31-1048; P05106 27-718) (complex)”, the dissociation constant Kd (in general, the free concentration of one partner at which half of the binding sites on the other are occupied at equilibrium, for simple one-to-one binding) in experiment [1] is 10.7 µM; in experiment [2], 0.528 µM; in experiment [3] it was 0.574 µM; in experiment [4], 0.007 µM; in experiment [5], 0.007 µM.

On to “human suPAR (soluble urokinase plasminogen activator receptor), recombinant (from UniProt Q03405 23-305)”, for which the KD for suPAR in the presence of αvβ3 integrin (5 nM) with Mn2+ stood at 0.024 µM in experiment [1] and 0.277 µM in experiment [2].
